US20110038869A1 (Genmab, published 2011)
Where a chain is given by its changes, count along the chain named.

T1: biotinylated CD32bECDHis (human, UniProt P31994 43-223, limits assumed, biotinylated (sites not given))
T1 sequence (looked up): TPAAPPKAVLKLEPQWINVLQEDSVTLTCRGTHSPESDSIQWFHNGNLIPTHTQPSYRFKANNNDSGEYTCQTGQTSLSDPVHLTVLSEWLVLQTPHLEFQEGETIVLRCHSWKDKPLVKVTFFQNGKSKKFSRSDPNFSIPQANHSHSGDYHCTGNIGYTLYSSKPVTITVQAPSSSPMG

T2: CD32bECDHis (human, UniProt P31994 43-223, limits assumed)
T2 construct: Produced in HEK-293F cells; also called extracellular domain of CD32b with C-terminal His tag; soluble CD32b
T2 sequence (looked up): T1 sequence (looked up)

B1: Antibody 024 (antibody, V domains shown)
VH: QVQLVQSGAEVKKPGASVKVSCKASGYTFTSYGLSWVRQAPGQGLEWMGWISPYNGNTHYAQKLQGRVTMTTDTSTSTAYMDLRSLRSDDTAVYYCARDSAAHGMDVWGQGTTVTVSS
VL: DIQMTQSPSSLSASVGDRVTITCRASQGISSWLAWYQQKPEKAPKSLIYAASSLQSGVPSRFSGSRSGTDFTLTISSLQPEDFATYYCQQYNSYPYTFGQGTKLEIKR
notes: also called HuMab 024
B2: Antibody 020 (antibody, V domains shown)
VH: B1 VH with A9G, A24T, L34I, P53A, H59K, V68L, S77T, D82E
VL: B1 VL with S63R, R66G
notes: also called HuMab 020
B3: Antibody 022 (antibody, V domains shown)
VH: B1 VH with Y80D, D99A
VL: B1 VL
notes: also called HuMab 022
B4: Antibody 026 (antibody, V domains shown)
VH: B1 VH with P53A, H59N
VL: B1 VL
notes: Human antibody; also called HuMab 026
B5: Antibody 028 (antibody, V domains shown)
VH: B1 VH with L4V, A24T, L34I, P53A, H59K, V68L, S77T, D82E, T115S
VL: B1 VL
notes: List 1 gives no VL for antibody 028; The VL is therefore uncertain; also called HuMab 028
B6: Antibody 038 (antibody, human IgG1, V domains shown)
VH: QVQLVESGGGVVQPGRSLRLSCAASGFTFSTYGMHWVRQAPGKGLEWVAVISHDGSDKYYADSVKGRFTISRDNSKNTLYLQMNSLRAEDTAVYYCARDQSIIETFDYWGQGTLVTVSS
VL: EIVLTQSPATLSLSPGERATLSCRASQSVSSYLAWYQQKPGQAPRLLIYDASNRATGIPARFSGSGSGTDFTLTISSLEPEDFAVYYCQQRSNWGFTFGPGTKVDIKR
notes: Human antibody; also called HuMab 038

molecular target: T1, biotinylated CD32bECDHis; assay: competition ELISA, competitor 038
Description: (§1) ELISA wells were coated overnight at 4° C. with anti-CD32b HuMabs serially diluted in PBS. The ELISA wells were washed with PBS, blocked for one hour at room temperature with 2% (v/v) chicken serum (Gibco, Paisley, Scotland) in PBS and washed again with PBS. Subsequently, the immobilized antibodies were incubated with biotinylated CD32bECDHis serially diluted in PBSTC. After washing with PBS/Tween, bound biotinylated CD32bECDHis was incubated with Streptavidin-poly-HRP (Sanquin, Amsterdam, The Netherlands) for 1 hr at RT an the reaction was developed as described supra.
(§2) To this end, ELISA wells coated with anti-CD32b HuMabs were incubated in the presence of an excess of CD32b-specific antibody and the predetermined concentration of biotinylated CD32bECDHis in fluid phase. The reaction was developed as described.

Row | Binder | % residual binding
1 | B1 | 103%
2 | B2 | 120%
3 | B3 | 115%
4 | B4 | 127%
5 | B5 | 121%
6 | B6 | 17%

molecular target: T1, biotinylated CD32bECDHis; assay: competition ELISA, competitor 024
Description: as §1, §2

Row | Binder | % residual binding
7 | B1 | 15%
8 | B2 | 4%
9 | B3 | 13%
10 | B4 | 1%
11 | B5 | 7%
12 | B6 | 351%

molecular target: T1, biotinylated CD32bECDHis; assay: competition ELISA, competitor 020
Description: as §1, §2

Row | Binder | % residual binding
13 | B1 | 43%
14 | B2 | 20%
15 | B3 | 35%
16 | B4 | 4%
17 | B5 | 24%
18 | B6 | 310%

molecular target: T1, biotinylated CD32bECDHis; assay: competition ELISA, competitor 053
Description: as §1, §2

Row | Binder | % residual binding
19 | B1 | 69%
20 | B2 | 42%
21 | B3 | 64%
22 | B4 | 29%
23 | B5 | 51%
24 | B6 | 333%

molecular target: T1, biotinylated CD32bECDHis; assay: competition ELISA, competitor 2B6
Description: as §1, §2

Row | Binder | % residual binding
25 | B1 | 98%
26 | B2 | 126%
27 | B3 | 96%
28 | B4 | 146%
29 | B5 | 125%
30 | B6 | 5%

molecular target: T1, biotinylated CD32bECDHis; assay: competition ELISA, competitor 026
Description: as §1, §2

Row | Binder | % residual binding
31 | B1 | 56%
32 | B2 | 28%
33 | B3 | 42%
34 | B4 | 4%
35 | B5 | 32%
36 | B6 | 308%

molecular target: T1, biotinylated CD32bECDHis; assay: competition ELISA, competitor 063
Description: as §1, §2

Row | Binder | % residual binding
37 | B1 | 68%
38 | B2 | 42%
39 | B3 | 63%
40 | B4 | 27%
41 | B5 | 45%
42 | B6 | 283%

molecular target: T1, biotinylated CD32bECDHis; assay: competition ELISA, competitor 016
Description: as §1, §2

Row | Binder | % residual binding
43 | B1 | 101%
44 | B2 | 105%
45 | B3 | 102%
46 | B4 | 104%
47 | B5 | 109%
48 | B6 | 105%

molecular target: T1, biotinylated CD32bECDHis; assay: competition ELISA, competitor 034
Description: as §1, §2

Row | Binder | % residual binding
49 | B1 | 6%
50 | B2 | 1%
51 | B3 | 7%
52 | B4 | 0%
53 | B5 | 2%
54 | B6 | 354%

molecular target: T2, CD32bECDHis; assay: ELISA on coated CD32bECDHis
Description: The specificity of the obtained anti-CD32b HuMabs was evaluated by ELISA. ELISA plates (Microlon; Greiner Bio-One) were coated overnight at 4° C. with 2 μg/ml of CD32aECDHis and CD32bECDHis in PBS, pH 7.4. Coated ELISA plates were washed with PBS, blocked for one hour at room temperature with 2% (v/v) chicken serum (Gibco, Paisley, Scotland) in PBS and washed again with PBS. Subsequently, HuMabs, serially diluted in PBSTC (PBS supplemented with 2% (v/v) chicken serum and 0.05% (v/v) Tween-20), were incubated for 1 hr at RT under shaking conditions (300 rpm). Bound HuMabs were detected using HRP-conjugated goat-anti-human IgG antibodies (Jackson ImmunoResearch Europe) diluted 1:10,000 in PBSTC, which were incubated for 1 hr at RT under shaking conditions (300 rpm). […] Binding curves were analyzed using non-linear regression (sigmoidal dose-response with variable slope) using GraphPad Prism V4.03 software.

Row | Binder | EC50
55 | B1 | 0.75 nM
56 | B2 | 0.49 nM
57 | B3 | 0.75 nM
58 | B4 | 0.51 nM
59 | B5 | 0.48 nM
60 | B6 | 0.62 nM

molecular target: T2, CD32bECDHis; assay: TR-FRET competition against HuMab-KLH-AlexaFluor 647
Text: To study the interaction of anti-CD32b HuMabs with CD32b and CD32a in more detail TR-FRET technology was applied. To this end, CD32bECDHis and CD32aECDHis were labeled with a fluorescent donor molecule directed against the histidine tag (Anti-6×His Europium3+, PerkinElmer, Boston Mass.).
Briefly, all dilutions were made in 0.5× Lance detection buffer (PerkinElmer, Boston Mass.) supplemented with 0.2% BSA (obtained via dilution of 7.5% BSA Stabilizer solution, cat: CR84-100, PerkinElmer) and 0.03% (v/v) Tween-20 (Riedel de Haen, Seelze, Germany). CD32bECDHis and CD32aECDHis were diluted to 0.5 μg/ml. […] Anti-6×His Europium3+ (PerkinElmer, Boston Mass.) was diluted to 0.15 μg/ml. A 4-fold serial dilution of the tested HuMab antibody was made in a 96 wells non-binding plate (cat. 650261, Greiner Bio-one, Frickenhausen, Germany), ranging from 10 μg/ml-0.04 ng/ml. […] After overnight incubation at 4° C. in the dark, fluorescence was measured using an EnVision 2101 Multilabel reader (PerkinElmer, Boston, Mass.) applying the following settings; Lance/Delfia dual mirror, emission filter 615-665 nm, excitation filter 320 nm, delay time 60 μs, window 100 μs, 100 flashes, 2000 μs per cycle and bidirectional row-by-row reading. Binding curves were analyzed using non-linear regression (sigmoidal dose-response with variable slope) using GraphPad Prism V4.03 software (GraphPad Software, San Diego, Calif., USA).

Row | Binder | % of maximal Fab-mediated inhibition | IC50
61 | B1 | ~70% | 0.45 nM
62 | B2 | ~70% | 0.35 nM
63 | B3 | ~70% | 0.44 nM
64 | B4 | ~70% | 0.3 nM
65 | B5 | ~70% | 0.35 nM
66 | B6 | – | 0.37 nM
